This assay addresses mouse class I molecule H-2 D^b (mouse | mouse (endogenous in MC57)).
As to synthetic LCMV peptide GP33-41, the binding plus extraction efficiency is 17%. The figure for synthetic LCMV peptide NP396-404 is 50%; for synthetic LCMV peptide GP276-286 it is 38%.

For the origin of these results see paper PMC2212291.
